{
  "source": "paper PMC7617672",
  "about": "“Oryza genera-specific novel Histone H4 variant predisposes H4 Lysine5 Acetylation marks to modulate salt stress responses”",
  "key": {"[1]": {"target": "rice histone H2A;rice histone H2B;rice histone H3;rice histone H4 (Oryza sativa;Oryza sativa;Oryza …, UniProt A2YMC6;A2WKP5;A2Y533;B7F4Q1 ;;;1-103, |||)", "experiment": "EMSA (nucleosome reconstitution, native PAGE); NCP gel: native 6% acrylamide, 0.5x TBE; peptide pull-down: 10 mM Tris pH 8.0, 50 mM NaCl, 5 mM MgCl2, 4 C, 6 h; cryo-EM: 10 mM Tris pH 8.0, 50 mM NaCl, 1 mM EDTA", "conditions": "protein: recombinant;recombinant;recombinant;recombinant; tags: none;none;none;N-terminal MGS extension from vector; chain copies: 2;2;2;2; blunt"}, "[2]": {"target": "rice histone H2A;rice histone H2B;rice histone H3;H4.VS (H4.V N-terminal 53 aa fused to H4 C-terminal 50 aa) (Oryza sativa;Oryza sativa;Oryza …, UniProt A2YMC6;A2WKP5;A2Y533;PDB:8Q16_4 ;;;, |||)", "experiment": "EMSA (nucleosome reconstitution, native PAGE); mobility shift similar to H4 NCP; NCP gel: native 6% acrylamide, 0.5x TBE; peptide pull-down: 10 mM Tris pH 8.0, 50 mM NaCl, 5 mM MgCl2, 4 C, 6 h; cryo-EM: 10 mM Tris pH 8.0, 50 mM NaCl, 1 mM EDTA", "conditions": "protein: recombinant;recombinant;recombinant;recombinant; tags: none;none;none;none; chain copies: 2;2;2;2; blunt"}},
  "data": [
    {"binder": "Widom 601 NPS (147 bp as stated; 146 nt printed) (dsDNA) DNA 1: CTGGAGAATCCCGGTGCCGAGGCCGCTCAATTGGTCGTAGACAGCTCTAGCACCGCTTAAACGCACGTACGCGCTGTCCCCCGCGTTTTAACCGCCAAGGGGATTACTCCCTAGTCTCCAGGCACGTGTCACATATATACATCCTG DNA 2: CAGGATGTATATATGTGACACGTGCCTGGAGACTAGGGAGTAATCCCCTTGGCGGTTAAAACGCGGGGGACAGCGCGTACGTGCGTTTAAGCGGTGCTAGAGCTGTCTACGACCAATTGAGCGGCCTCGGCACCGGGATTCTCCAG", "values": [
      {"measurement": "binding result", "setting": "[1]", "result": "binds"},
      {"measurement": "binding result", "setting": "[2]", "result": "binds"}
    ]}
  ]
}
